The values below are quoted from earlier work in PMC8138766.

For data set [1], the target named is V-ATPase subunit C (Saccharomyces cerevisiae) (UniProt P31412).
Data set [2] shares this target. This is another data set of the same source.

Read-outs that look alike come from different tables or passages of the source.

V-ATPase subunit C (Saccharomyces cerevisiae), sequence (P31412 2-392): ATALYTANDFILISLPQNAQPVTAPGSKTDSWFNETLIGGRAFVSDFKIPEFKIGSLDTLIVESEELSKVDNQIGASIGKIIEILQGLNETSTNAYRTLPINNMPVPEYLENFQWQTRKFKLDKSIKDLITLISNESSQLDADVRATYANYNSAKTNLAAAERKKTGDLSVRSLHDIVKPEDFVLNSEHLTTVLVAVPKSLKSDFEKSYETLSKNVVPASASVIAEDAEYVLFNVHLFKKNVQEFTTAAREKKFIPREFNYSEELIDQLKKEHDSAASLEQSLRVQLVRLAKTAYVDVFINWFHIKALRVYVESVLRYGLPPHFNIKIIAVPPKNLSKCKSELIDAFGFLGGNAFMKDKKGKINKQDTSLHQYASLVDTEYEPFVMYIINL
V1, sequence (P17255 2-1071): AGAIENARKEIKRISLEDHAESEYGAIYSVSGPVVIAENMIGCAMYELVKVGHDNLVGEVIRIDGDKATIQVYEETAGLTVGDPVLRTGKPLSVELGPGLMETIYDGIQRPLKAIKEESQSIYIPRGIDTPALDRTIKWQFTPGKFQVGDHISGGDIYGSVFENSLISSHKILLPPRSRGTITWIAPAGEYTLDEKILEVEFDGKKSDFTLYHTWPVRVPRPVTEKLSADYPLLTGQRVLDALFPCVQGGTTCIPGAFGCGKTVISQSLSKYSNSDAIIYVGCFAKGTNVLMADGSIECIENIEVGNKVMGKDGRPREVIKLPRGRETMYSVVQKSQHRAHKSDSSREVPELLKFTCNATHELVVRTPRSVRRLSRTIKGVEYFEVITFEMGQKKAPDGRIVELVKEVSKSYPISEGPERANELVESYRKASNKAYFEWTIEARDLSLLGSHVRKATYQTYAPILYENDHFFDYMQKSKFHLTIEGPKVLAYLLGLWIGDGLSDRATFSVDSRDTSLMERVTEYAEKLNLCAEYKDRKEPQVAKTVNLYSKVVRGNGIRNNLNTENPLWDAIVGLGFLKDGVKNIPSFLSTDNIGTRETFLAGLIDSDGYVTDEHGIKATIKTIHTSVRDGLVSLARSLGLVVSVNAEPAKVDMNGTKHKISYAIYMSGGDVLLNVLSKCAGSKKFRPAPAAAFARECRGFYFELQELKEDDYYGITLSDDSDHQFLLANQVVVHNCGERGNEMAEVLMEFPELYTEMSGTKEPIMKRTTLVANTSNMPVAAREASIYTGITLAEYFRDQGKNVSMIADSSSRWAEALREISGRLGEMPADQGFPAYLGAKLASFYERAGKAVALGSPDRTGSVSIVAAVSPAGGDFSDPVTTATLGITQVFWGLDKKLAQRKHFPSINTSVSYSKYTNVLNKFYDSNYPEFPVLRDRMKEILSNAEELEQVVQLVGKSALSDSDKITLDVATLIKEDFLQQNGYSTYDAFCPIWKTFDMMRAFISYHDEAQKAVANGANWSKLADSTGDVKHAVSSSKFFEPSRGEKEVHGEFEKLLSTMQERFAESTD
V1, sequence (P16140 2-517, further chain): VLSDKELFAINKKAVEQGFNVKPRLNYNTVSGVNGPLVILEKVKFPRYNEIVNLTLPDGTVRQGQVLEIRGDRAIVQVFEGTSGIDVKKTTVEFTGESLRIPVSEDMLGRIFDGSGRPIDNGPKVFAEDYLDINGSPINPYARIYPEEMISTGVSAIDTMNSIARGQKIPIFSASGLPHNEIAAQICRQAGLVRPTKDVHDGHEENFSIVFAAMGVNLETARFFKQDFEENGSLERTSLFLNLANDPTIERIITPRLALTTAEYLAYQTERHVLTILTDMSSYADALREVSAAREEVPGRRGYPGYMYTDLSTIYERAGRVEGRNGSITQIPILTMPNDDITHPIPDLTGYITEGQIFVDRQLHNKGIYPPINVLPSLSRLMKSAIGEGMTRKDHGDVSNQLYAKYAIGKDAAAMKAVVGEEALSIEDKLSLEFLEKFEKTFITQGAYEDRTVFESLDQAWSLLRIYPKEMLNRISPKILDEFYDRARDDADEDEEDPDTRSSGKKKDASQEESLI
EG stalk, sequence (P22203 2-233): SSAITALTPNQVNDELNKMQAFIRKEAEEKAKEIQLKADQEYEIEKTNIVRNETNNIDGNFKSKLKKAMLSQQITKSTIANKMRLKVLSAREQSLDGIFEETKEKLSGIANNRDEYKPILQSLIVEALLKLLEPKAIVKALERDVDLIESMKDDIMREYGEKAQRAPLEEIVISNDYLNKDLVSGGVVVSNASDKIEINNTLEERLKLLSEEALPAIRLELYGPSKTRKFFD
EG stalk, sequence (P48836 2-114, further chain): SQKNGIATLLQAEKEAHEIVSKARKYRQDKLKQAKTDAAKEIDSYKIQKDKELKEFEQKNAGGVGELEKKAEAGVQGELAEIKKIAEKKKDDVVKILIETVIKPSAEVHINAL

Regarding EG stalk (from UniProt P22203), the Kd in data set [1] is 42 nM.

Regarding V1 (from UniProt P17255), in data set [2], the Kd is 0.7 nM.
